B1: DNA-binding protein inhibitor ID-1 (Homo sapiens), P41134 (parent)
chain: MKVASGSTATAAAGPSCALKAGKTASGAGEVVRCLSEQSVAISRCAGGAGARLPALLDEQQVNVLLYDMNGCYSRLKELVPTLPQNRKVSKVEILQHVIDYIRDLQLELNSESEVGTPGGRGLPVRAPLSTLNGEISALTAEAACVPADDRILCR

Variants of: B1
Details: with cav1_human CAV1, Q03135
Sequence of cav1_human CAV1, Q03135 (Q03135 whole entry): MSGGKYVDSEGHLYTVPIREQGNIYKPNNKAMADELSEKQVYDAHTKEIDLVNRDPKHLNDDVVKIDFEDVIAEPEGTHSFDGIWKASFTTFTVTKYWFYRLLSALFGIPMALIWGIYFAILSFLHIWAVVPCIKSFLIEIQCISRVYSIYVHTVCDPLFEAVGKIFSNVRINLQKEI

Row | effect of a mutation on the interaction | Variant
1 | decreasing interaction | MKVASGSTATAAAGPSCALKAGKTASGAGEVVRCLSEQSVAISRCAGGAGARLPALLDEQQVNVLLYDMNGCYSRLKELVPTLPQNRKVSKVEILQHVIDDIRDLQLELNSESEVGTPGGRGLPVRAPLSTLNGEISALTAEAACVPADDRILCR [Y101D]
